Reference: patent US20170173114A1, “METHODS AND COMPOSITIONS FOR INDUCTION OF UCP1 EXPRESSION” (Joslin Diabetes Center, Inc., priority 2014, published 2017)
“Also recorded” adds a separate entry of the source.

How the values were obtained:
WT-1 brown preadipocytes [1] = assay: Mitochondrial DNA copy number and mitochondrial gene expression in brown preadipocytes; type: cell-based, murine; conditions: 24 hours; vs control
Experimental: In order to determine whether the marked changes in mitochondrial respiration observed in preadipocytes treated with FGF6 is due to increased mitochondrial mass and/or changes in mitochondrial dynamics, in addition to increased UCP1 expression, mitochondrial DNA (mtDNA) copy number (as the ratio of CoxII (mtDNA) over β-globin (nuclear DNA)) and expression of genes involved in mitochondrial replication (e.g., mTFA, Nrf1 and Nrf2) in brown preadipocytes was measured.

WT-1 brown preadipocytes [2] = assay: Seahorse Bioanalyzer cellular respiration in WT-1 brown preadipocytes; type: cell-based, murine
Description: The Seahorse XF24 (Seahorse Bioscience, http://www.seahorsebio.com/) was utilized for respirometry to measure oxygen consumption rates (OCR; indicating oxidative phosphorylation) and extracellular acidification rates (ECAR; indicating extracellular pH) in mature brown adipocytes. The cell plates and assay cartridges for the Seahorse XF24 have four ports allowing for drug delivery to individual wells during measurement of the metabolic parameters. For a typical bioenergetic profile, cells are first treated with oligomycin to block ATP synthase, FCCP as an uncoupler and Rotenone to block Complex 1 of the ETC (all from Sigma). Example 2 provides additional details regarding the general method. Data provided in the Figures (e.g., FIG. 27) based on the Seahorse Bioanalyzer includes a bottom horizontal line which represents the baseline of the mechanics of the machine and is not related to the experiment.
A profile of cellular respiration was developed by utilizing well-characterized mitochondrial toxins, as described in FIG. 5B. First, basal respiration was measured, followed by injection of oligomycin (an inhibitor of ATP synthase which allows measurement of ATP turnover). Then, the uncoupler FCCP (carbonilcyanide p-triflouromethoxyphenylhydrazone) was injected to measure respiratory capacity, followed by the complex 1 inhibitor rotenone (which prevents electron transfer activity and leaves only non-mitochondrial activity to be measured).
Similar results were observed when WT-1 brown preadipocytes were treated with 200 ng/mL of FGF6 for 24 hrs using the Seahorse Bioanalyzer.
The role of PGs in regulating mitochondrial function and cellular glucose uptake was also assessed. WT-1 brown preadipocytes were treated with PGE2, PGI2 and FGF6 in growth media (DMEM+10% FBS) for two days. Similar to treatment with FGF6, treatment with PGE2 and PGI2 enhanced oxygen consumption and glucose uptake, as described in FIGS. 27A and 27B, respectively.

[3] = Insulin tolerance test in Chow or high fat diet mice; type: in vivo, C57BL6 mice; conditions: Chow or HFD mice, 0.5 mg/kg FGF6 s.c. and 1.5 U insulin per kg
Experimental: In addition to testing the impact of FGF6 on glucose tolerance, an insulin tolerance test was also performed using Chow fed and Obese (HFD) mice. Animals were fasted for two hours before receiving an intraperitoneal dose of 1.5 IU of recombinant human insulin (Humalog; Eli Lilly and Company, Indianapolis, Ind.). Blood samples were collected from the tail vein for measurement of blood glucose levels using a glucometer before and 15, 30, and 60 min after injections of FGF6 and the buffer control.

UCP1 protein = UCP1 protein in WT-1 cells (immunofluorescent staining, Western blot); type: cell-based, murine; conditions: for UCP1 protein, immunofluorescent staining: relative to control cells
Experimental: Cells were harvested in lysis buffer (50 mM HEPES, 137 mM NaCl, 1 mM MgCl2, 1 mM CaCl2, 10 mM Na2P2O7, 10 mM NaF, 2 mM EDTA, 10% glycerol, 1% Igepal CA-630, 2 mM vanadate, 10 μg/ml of leupeptin, 10 μg/ml of aprotinin, 2 mM phenylmethylsulfonyl fluoride; pH 7.4). After lysis, lysates were clarified by centrifugation at 12,000×g for 20 min at 4° C., the amount of protein in the supernatants was determined by the Bradford Protein Assay (Bio-Rad Laboratories, Hercules, Calif.). Proteins were directly solubilized in Laemmli sample buffer. Equal amounts of lysates were separated by sodium dodecyl sulfate-polyacrylamide gel electrophoresis and transferred to Immobolin-P membranes. Membranes were blocked overnight at 4° C. and incubated with the indicated antibody for 2 hours at room temperature. Specifically bound primary antibodies were detected with peroxidase-coupled secondary antibody and enhanced chemiluminescence (ECL, Amersham Biosciences, Piscataway, N.J.).
The effect of FGF6 on differentiation of WT-1 murine brown preadipocytes was also examined. WT-1 cells can be induced to undergo brown adipocyte differentiation, characterized by lipid accumulation and expression of adipogenic and brown fat markers, as described above (Klein et al. (1999) J Biol Chem 274:34795; Tseng et al. (2005) Nat Cell Biol 7:601). WT-1 cells were treated with FGF6 in growth media (DMEM+10% FBS), a vehicle control (“control” or “C” referred to in FIGS. 3A-D), or induction media (“induction” or “I” referred to in FIGS. 3A-D) as described above for seven days. Following the treatment, cells were examined for the color of the culture media in combination with oil Red O staining, expression of adipogenic markers, expression of brown fat markers, immunofluorescent staining of cells with UCP1 and DPAI, and Western blot analysis to determine the presence of UCP1 and β-tubulin. The results are described in FIGS. 3A to 3D.
FGF2, FGF6 and FGF9 were used at a dosage of 200 ng/mL. Cells were stained using immunofluorescent stains for UCP1 and DAPI (which binds to DNA).

B1: FGF6: fibroblast growth factor 6; recombinant human FGF from R&D Systems, or mouse FGF6 cDNA overexpressed by lentiviral vector (protein)
chain: KRQRRLYCNVGIGFHLQVLPDGRISGTHEENPYSLLEISTVERGVVSLFGVRSALFVAMNSKGRLYATPSFQEECKFRETLLPNNYNAYESDLYQGTYIALSKYGRVKRGSKVSPIMTVTHFLPRI
- expression of nuclear-encoded mitochondrial genes (WT-1 brown preadipocytes [1]): not significantly altered
- mitochondrial DNA copy number (CoxII over β-globin) (WT-1 brown preadipocytes [1]): no significant difference; also recorded: does not alter
- cellular respiration (basal respiration, ATP turnover, proton leak, respiratory capacity) (WT-1 brown preadipocytes [2]; FGF6 overexpressing WT-1 vs control cells): increase in all tested aspects of cellular respiration
- uncoupled respiration (WT-1 brown preadipocytes [2]; WT-1 treated with 200 ng/mL for 24 hrs): elevation in uncoupled respiration
- cellular respiration (basal respiration, ATP turnover, proton leak, respiratory capacity) (WT-1 brown preadipocytes [2]; WT-1 treated with 200 ng/mL for 24 hrs vs control cells): coordinated increase in all aspects of cellular respiration
- glucose levels in insulin tolerance test (insulin sensitivity) [3]: lower levels of glucose; also recorded: enhanced insulin sensitivity
- UCP1 protein, immunofluorescent staining (UCP1 protein; WT-1, 200 ng/mL with insulin 20 nM and T3 1 nM): significant levels of staining
- UCP1 protein, Western blot (UCP1 protein; WT-1, seven days): present
- UCP1 protein, immunofluorescent staining (UCP1 protein; WT-1, seven days): significant levels of staining
